Measured values published in publication PMC4703387, “Identification of the Calmodulin-Binding Domains of Fas Death Receptor” (PLoS ONE, 2016).

Biological target: T1, calmodulin, calcium-bound (Ca2+/CaM) (UniProt P0DP23 1-149)
T1 construct: all experiments in the presence of calcium; Used unlabelled or 15N/13C-labelled; also called full-length Ca^2+/CaM
Test: NMR titration; 2D 1H-15N HSQC; unlabelled peptide titrated into 15N-labelled Ca2+/CaM, Ca2+/CaM-N or Ca2+/CaM-C (100-150 uM), 35°C, 50 mM Tris-d11 pH 7.0, 100 mM NaCl, 5 mM CaCl2; Kd by one-site fit of chemical shift changes
Details: both partners purified

B1: FasDD(224-238) peptide (peptide)
peptide: MTLSQVKGFVRKNGV
notes: also called FasDD(228–238); source: synthetic peptide, bought: Genscript (>95% purity)
binding result: binds
